What all share (assay): fluorescence anisotropy
Conditions in all cases: 50 mM Tris-HCl pH 8.0, 50 mM NaCl, 1 mM DTT, 25 C; 200 nM protein, 5 nM 3'-fluorescein DNA

In one data set the target is BLM full-length (human) (UniProt P54132).
Another data set deals with BLM642-1290 (human) (UniProt P54132).
Data set [1] deals with RecQ E. coli (Escherichia coli) (UniProt P15043).

In paper PMC4872126 one finds IC50 data, which are given here for one sequence.

Sequence of BLM full-length (human) (P54132 whole entry): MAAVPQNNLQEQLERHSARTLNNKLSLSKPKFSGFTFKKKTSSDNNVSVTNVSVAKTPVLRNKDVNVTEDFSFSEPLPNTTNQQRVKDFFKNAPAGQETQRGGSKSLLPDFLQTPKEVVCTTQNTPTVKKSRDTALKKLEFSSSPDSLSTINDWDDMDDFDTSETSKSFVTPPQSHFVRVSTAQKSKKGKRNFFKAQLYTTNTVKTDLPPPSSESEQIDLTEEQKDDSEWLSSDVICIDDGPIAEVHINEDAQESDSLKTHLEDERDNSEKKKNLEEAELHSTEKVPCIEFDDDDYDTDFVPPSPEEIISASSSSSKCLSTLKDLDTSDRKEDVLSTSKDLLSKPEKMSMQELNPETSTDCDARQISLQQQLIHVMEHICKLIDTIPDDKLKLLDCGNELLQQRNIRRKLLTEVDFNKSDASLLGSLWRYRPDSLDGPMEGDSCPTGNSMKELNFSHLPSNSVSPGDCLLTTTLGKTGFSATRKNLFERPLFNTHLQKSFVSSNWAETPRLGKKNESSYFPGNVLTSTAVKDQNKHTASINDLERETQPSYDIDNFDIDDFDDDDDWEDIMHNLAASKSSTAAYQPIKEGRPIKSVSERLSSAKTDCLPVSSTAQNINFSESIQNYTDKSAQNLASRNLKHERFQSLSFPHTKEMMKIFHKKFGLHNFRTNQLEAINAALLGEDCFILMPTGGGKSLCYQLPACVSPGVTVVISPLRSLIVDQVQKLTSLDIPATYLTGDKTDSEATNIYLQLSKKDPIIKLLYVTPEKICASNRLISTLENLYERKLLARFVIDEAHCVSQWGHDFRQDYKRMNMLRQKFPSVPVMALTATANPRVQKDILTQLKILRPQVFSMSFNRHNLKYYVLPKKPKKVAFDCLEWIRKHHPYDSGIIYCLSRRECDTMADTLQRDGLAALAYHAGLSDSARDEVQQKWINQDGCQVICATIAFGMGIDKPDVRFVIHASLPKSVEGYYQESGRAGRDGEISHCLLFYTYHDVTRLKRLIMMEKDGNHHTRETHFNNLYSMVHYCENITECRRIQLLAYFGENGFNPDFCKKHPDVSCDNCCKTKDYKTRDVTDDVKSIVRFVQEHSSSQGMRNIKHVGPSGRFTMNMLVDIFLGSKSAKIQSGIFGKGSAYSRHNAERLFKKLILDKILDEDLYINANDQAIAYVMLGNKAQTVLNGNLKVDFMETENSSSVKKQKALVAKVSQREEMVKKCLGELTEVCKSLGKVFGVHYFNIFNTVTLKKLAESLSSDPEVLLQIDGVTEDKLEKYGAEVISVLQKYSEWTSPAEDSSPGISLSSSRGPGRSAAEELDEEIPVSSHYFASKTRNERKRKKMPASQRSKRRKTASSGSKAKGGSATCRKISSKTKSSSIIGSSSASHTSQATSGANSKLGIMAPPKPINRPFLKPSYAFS
Sequence of RecQ E. coli (Escherichia coli) (P15043 whole entry): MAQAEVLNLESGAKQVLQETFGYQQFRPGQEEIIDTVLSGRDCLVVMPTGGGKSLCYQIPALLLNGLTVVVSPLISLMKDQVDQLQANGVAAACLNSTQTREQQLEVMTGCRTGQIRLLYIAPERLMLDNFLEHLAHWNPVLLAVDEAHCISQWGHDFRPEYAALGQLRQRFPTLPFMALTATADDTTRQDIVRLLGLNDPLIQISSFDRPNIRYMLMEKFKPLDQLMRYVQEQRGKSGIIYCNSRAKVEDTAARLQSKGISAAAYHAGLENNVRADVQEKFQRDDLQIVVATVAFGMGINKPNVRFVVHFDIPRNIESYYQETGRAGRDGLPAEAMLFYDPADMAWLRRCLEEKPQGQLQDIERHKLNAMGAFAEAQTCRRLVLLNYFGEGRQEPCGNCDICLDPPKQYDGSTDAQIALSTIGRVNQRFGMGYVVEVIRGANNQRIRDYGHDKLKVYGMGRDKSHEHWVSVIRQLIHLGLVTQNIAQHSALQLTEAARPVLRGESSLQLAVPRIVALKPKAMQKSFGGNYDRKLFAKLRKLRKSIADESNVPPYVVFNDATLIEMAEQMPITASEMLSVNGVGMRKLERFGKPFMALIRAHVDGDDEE
Sequence of BLM642-1290 (human) (P54132 642-1290): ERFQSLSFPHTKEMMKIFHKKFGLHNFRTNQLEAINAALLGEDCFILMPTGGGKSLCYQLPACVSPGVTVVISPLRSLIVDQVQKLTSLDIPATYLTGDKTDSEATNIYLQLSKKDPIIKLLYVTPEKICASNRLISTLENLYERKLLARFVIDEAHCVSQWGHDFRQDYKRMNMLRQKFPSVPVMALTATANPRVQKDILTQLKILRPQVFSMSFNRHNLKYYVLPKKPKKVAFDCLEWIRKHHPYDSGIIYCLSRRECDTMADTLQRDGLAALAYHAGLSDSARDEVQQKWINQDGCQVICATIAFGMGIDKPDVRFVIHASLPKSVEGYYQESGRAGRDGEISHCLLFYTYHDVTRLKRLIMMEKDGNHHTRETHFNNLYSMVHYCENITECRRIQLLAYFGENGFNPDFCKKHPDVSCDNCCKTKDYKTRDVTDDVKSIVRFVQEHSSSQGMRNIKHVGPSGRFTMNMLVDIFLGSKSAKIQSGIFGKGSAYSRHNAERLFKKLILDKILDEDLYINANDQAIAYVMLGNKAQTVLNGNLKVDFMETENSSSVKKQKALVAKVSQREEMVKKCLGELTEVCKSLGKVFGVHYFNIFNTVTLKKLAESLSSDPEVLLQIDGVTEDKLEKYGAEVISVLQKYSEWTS

A word on the IC50: it is the concentration that gives 50% inhibition. Low readings indicate greater potency, high ones weaker potency. As for “GCCCTGCTGCCGACCAACGAAGGT (double strand) [F-24 ds]”, the half-inhibitory concentration (IC50) turned out to be 6.84 µM with BLM full-length (human), 8.17 µM with BLM642-1290 (human) and 44.1 µM in data set [1].
